The results in this text go back to patent US20230265185A1 (NATIONAL RESEARCH COUNCIL OF CANADA, published 2023).

A word on the Kd: it is the free concentration of one partner at which half of the binding sites on the other are occupied at equilibrium, for simple one-to-one binding. Usually koff stands for a measure of how fast the partners let go of each other. Broadly, the kon is a measure of how fast the partners come together.

Test [1] deals with T1, hCD22 fragment Bin 7, IVR7 (aa561-668), displayed on yeast cells (human, UniProt P20273 580-687).
T1 construct: range 561-668; Range is counted on the mature ECD, not on the UniProt entry; on P20273 it would be 580-687 (my arithmetic); also called CD22 Sub-Domain 7; not shown: Aga2-HA display fusion partner of vector pPNL6; MYC tag
T1 sequence (looked up): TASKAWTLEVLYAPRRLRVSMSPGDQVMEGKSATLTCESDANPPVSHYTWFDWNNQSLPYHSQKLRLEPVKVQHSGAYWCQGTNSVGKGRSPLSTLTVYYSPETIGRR
Briefly: yeast display cell ELISA. On the procedure:
(§1) The YSD vector (pPNL6) was from The Pacific Northwest National Laboratory, USA. […] The HRP activity was assayed with substrate TMB (tetramethyl benzidine) according to the manufacture’s conditions and read at OD₄₅₀.
(§2) The wells that gave rise to OD₄₅₀ above 0.25 were highlighted, indicating significant antibody-antigen interactions. All the sdAbs tested except hCd22_1ug-14 were assigned to specific Bin(s).
Background: An ELISA detects its analyte on a solid surface through an enzyme-linked reagent.

Test [2] deals with T2, recombinant extracellular domain of the predominant human CD22-beta isoform (CD22-ECD) (human, UniProt P20273 20-687, CHO-expressed glycoprotein. Capture on an SA chip implies biotinylation, but the patent does not state it for SPR.).
T2 construct: Expressed in CHO-3E7 cells, IMAC and SEC purified, monomeric fraction; Results say it was immobilized onto a CM5 dextran chip; also called human CD22-ECD; hCD22 ecto-domain
T2 sequence: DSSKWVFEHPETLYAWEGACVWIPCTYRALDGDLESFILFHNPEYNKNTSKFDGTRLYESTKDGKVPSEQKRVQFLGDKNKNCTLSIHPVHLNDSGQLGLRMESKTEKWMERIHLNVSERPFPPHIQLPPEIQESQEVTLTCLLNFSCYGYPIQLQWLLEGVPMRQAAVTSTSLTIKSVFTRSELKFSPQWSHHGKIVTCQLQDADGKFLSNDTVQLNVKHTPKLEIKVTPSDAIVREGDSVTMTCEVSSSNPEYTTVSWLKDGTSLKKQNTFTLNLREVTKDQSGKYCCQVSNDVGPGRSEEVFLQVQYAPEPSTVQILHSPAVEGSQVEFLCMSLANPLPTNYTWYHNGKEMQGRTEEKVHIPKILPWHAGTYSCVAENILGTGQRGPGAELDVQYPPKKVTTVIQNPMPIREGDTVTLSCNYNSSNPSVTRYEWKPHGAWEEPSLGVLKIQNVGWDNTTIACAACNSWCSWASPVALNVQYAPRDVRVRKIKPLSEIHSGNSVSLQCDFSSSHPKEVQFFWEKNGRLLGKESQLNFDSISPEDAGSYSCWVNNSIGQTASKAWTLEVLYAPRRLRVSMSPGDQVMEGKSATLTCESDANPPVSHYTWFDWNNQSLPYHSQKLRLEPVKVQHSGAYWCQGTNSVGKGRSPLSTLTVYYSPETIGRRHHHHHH
Briefly: SPR, Biacore T200, VHH over immobilized CD22-ECD. On the procedure:
For surface Plasmon resonance, 21 selected VHHs were passed though size exclusion columns, superdex 75 (GE Healthcare), respectively, in 10 mM HEPES, pH 7.4, containing 150 mM NaCl, 3 mM EDTA, monomeric sdAb fractions were collected and protein concentrations were determined by measuring absorbance at 280 nm (A280). Analysis were performed with Biacore T200 instrument (GE Healthcare). All measurements were carried out at 25° C. in 10 mM HEPES, pH 7.4, containing 150 mM NaCl, 3 mM EDTA and 0.005% surfactant P20 (GE Healthcare). Approximately 1919 RUs of the recombinant monomeric CD22-ECD (obtained after SEC purification of the CD22-ECD) were captured on SA sensor chip (GE Healthcare) at a flow rate of 5 uL/min. Various concentration of the monomeric VHHs were injected over CD22-ECD surface, respectively using an SA surface as a reference at a flow rate of 40 µL/min. Surfaces were generated by washing with running buffer. Data were analysed with BIAevaluation 4.1 software.
The monomeric fraction of all 21 VHHs were used for SPR experiment where the human CD22-ECD was immobilized onto the CM5 dextran chip and various VHH concentration (0.6-400 nM) were passed over the sensor chip. […] All of the data collected fit a 1:1 binding model.

In test [3] the target is T3, full-length hCD22-ECD (668aa) displayed on yeast cells (human, UniProt P20273 20-687).
T3 construct: extracellular domain; Yeast surface display fusion Aga2-HA-(insert)-MYC; also called Bin 8; CD22-ECD Full lenght; not shown: Aga2-HA display fusion partner of vector pPNL6; MYC tag
T3 sequence (looked up): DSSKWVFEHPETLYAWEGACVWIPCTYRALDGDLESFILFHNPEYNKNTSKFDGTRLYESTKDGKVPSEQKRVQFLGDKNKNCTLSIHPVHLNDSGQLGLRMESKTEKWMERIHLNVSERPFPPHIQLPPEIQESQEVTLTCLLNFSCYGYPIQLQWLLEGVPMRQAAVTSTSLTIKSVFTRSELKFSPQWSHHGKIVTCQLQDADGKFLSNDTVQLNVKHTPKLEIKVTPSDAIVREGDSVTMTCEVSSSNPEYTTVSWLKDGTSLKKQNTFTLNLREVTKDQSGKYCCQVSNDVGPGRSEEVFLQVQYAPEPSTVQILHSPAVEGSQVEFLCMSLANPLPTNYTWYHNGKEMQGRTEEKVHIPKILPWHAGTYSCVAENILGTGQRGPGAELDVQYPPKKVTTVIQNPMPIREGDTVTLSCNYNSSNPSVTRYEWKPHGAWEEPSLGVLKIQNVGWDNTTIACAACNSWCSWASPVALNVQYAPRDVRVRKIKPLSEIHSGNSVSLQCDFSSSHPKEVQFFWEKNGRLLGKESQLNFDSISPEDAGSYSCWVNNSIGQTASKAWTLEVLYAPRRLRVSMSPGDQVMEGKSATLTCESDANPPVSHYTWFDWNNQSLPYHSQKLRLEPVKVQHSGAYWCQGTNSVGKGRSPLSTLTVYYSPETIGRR
Briefly: yeast display cell ELISA, biotinylated sdAb 250 nM. The procedure:
as §1, §2

Test [4] has as its target T1, hCD22 fragment Bin 7, IVR7 (aa561-668), …. Briefly: yeast display cell ELISA, native cells. On the procedure: as §1
Table 7 depicts the assessment of the nature of the epitopes of CD22 sdAbs to determine if the epitopes for the sdAbs are continuous (linear) or non-continuous (conformational). […] The binding of each sdAb to native and denatured CD22 fragments was measured as OD₄₅₀, and the ratio of the binding to denatured CD22 to non-denatured CD22 was calculated, with the ratio ≥ 0.5 indicative linear (L), and the ratio < 0.5 indicative of conformational (C) epitopes.

B1: hCD221ug-36 (VHH)
VHH: EVQLVDSGGGLVQAGGSLRVSCEASGITFSRAAMGWYRQRPGKERERVAVVNSDSSTIYADSVKGRFTISRDNAKNTVYLQMNSLEPEDTAVYYCWSPGFGSYWGQGTQVTVSS
modifications: single biotin at the VHH C-terminal (biotinylation signal sequence)
notes: llama VHH, expressed in E. coli TG1, IMAC purified, monomeric SEC fraction; also called VHH # 22; 4-hCD22 1ug-36
As to B1, the binding result in test [1] is given as “no binding (tested: OD450 not above 0.25; sdAb 250 nM)”. In test [2], the Kd is 9.59 nM, the koff turned out to be 0.00114 s⁻¹ and the kon is 119000 M⁻¹ s⁻¹. Further, the OD450 in test [3] was 1.42 OD450.

B2: hCD221ug-80 (VHH)
VHH: QVQLVESGGGLVQPGGSLRLSCTFSGFTLDYYVMVWFRQAPGKEREAVSCITSDGVTYYADSVKGRFTISRDNAKNTVYLQMNRVKPEDTAVYYCAVDKPFYDGGIQYTCPVDFDSWGQGAQVTVSS
modifications: single biotin at the VHH C-terminal (biotinylation signal sequence)
notes: llama VHH, expressed in E. coli TG1, IMAC purified, monomeric SEC fraction; also called VHH # 1; 2-hCD22 1ug-80
As to B2, in test [2], the Kd is 30.3 nM, the off-rate (koff) was 0.000633 s⁻¹ and the kon was 20900 M⁻¹ s⁻¹. The same molecule had an OD450 in test [3] of 1.81 OD450.

B3: hCD22pas-32 (VHH)
VHH: QVQLVESGGGLVQAGGSLRLSCAVSGRIFRSYVLGWFRQAPGKERELVARIGWSDTYYADSVKGRFTISRDNAKNTVDLQMNSLKPEDTAVYYCAANSPPYGPQRDEFGYWGQGTQVTVSS
modifications: single biotin at the VHH C-terminal (biotinylation signal sequence)
notes: llama VHH, expressed in E. coli TG1, IMAC purified, monomeric SEC fraction; also called VHH # 15; 6-hCD22 pas-32
Take B3: in test [1], the binding result is reported as “no binding (tested: OD450 not above 0.25; sdAb 250 nM)”. Moreover, in test [2], the Kd is 23.4 nM, the koff turned out to be 0.00369 s⁻¹ and the kon was determined as 158000 M⁻¹ s⁻¹. For the same molecule, the OD450 in test [3] stood at 0.289 OD450.

B4: hCD221ug-13 (VHH)
VHH: QVQLVESGGGLVQAGDSLRLSCAGSGGSFSSVTMAWFRQAPGKDREFVAAITWSSPSTYYADSVKGRFTISRDNAKNTVYLQMNSLKPEDTAVYYCAGGRTGRGTSADTDEYNYWGQGTQVTVSS
modifications: single biotin at the VHH C-terminal (biotinylation signal sequence)
notes: llama VHH, expressed in E. coli TG1, IMAC purified, monomeric SEC fraction; also called VHH # 21; 1-hCD22 1ug-13
On to B4, for which, in test [2], the Kd was 2.91 nM, the koff was 0.000675 s⁻¹ and the kon came out at 232000 M⁻¹ s⁻¹. Further, in test [3], the OD450 stood at 1.19 OD450.

B5: hCD221ug-61 (VHH)
VHH: QVQLVESGGGLVQAGGSLRLSCAASMSSFSQYVMYWYRQAPGKQRELVATITSYSNTNYADSVKGRFTISRDNAKSIAYLQMDSLKPEDTAVYYCNAQYGSTFIRNHWDDWGQGTQVTVSS
modifications: single biotin at the VHH C-terminal (biotinylation signal sequence)
notes: llama VHH, expressed in E. coli TG1, IMAC purified, monomeric SEC fraction; also called VHH # 14; 3-hCD22 1ug-61
Turning to B5, in test [2], the Kd came to 0.546 nM, the koff was 0.000681 s⁻¹ and the kon was determined as 1.25e+06 M⁻¹ s⁻¹. In test [3], this molecule registered an OD450 of 1.48 OD450. In addition, the “Non denatured CD22 OD” value in test [4] was 3.5 OD450.

B6: hCD22pas-24 (VHH)
VHH: QVQLVESGGGLVQAGGSLRLSCSASGITSSINSMGWHRQAPGKQRELVASIGRGGSGSTKYADSGKGRFLISRDNNKNILFLEMNSLKPEDTADYYCLEVTTDLSSYWGRGTQVTVSS
modifications: single biotin at the VHH C-terminal (biotinylation signal sequence)
notes: llama VHH, expressed in E. coli TG1, IMAC purified, monomeric SEC fraction; also called VHH # 26; 8-hCD22 pas-24
Consider B6, for which, in test [2], the Kd came out at 26 nM, the koff came to 0.00386 s⁻¹ and the kon was determined as 148000 M⁻¹ s⁻¹. The molecule further gave an OD450 in test [3] of 1.18 OD450. Besides, the “Non denatured CD22 OD” value in test [4] stood at 3.5 OD450.

B7: hCD22pas-64 (VHH)
VHH: QVQLVESGGGLVQAGGSLRLSCAASGSTFSLNTMAWYRQAPGNQREYVAAASSDGYTNYADSVRGRFTISRDNDKNTMYLQMNSLRPEDTAVYYCTWGTGRFADYIYWGQGTQVTVSS
modifications: single biotin at the VHH C-terminal (biotinylation signal sequence)
notes: llama VHH, expressed in E. coli TG1, IMAC purified, monomeric SEC fraction; also called VHH # 25; 7-hCD22 pas-64
As to B7, the binding result in test [1] was “no binding (tested: OD450 not above 0.25; sdAb 250 nM)”. In addition, in test [2], the Kd turned out to be 250 nM, the koff turned out to be 0.0271 s⁻¹ and the kon amounted to 108000 M⁻¹ s⁻¹.

B8: hCD221ug-10 (VHH)
VHH: QVQLVESGGGLVQAGGSLSVSCTASESTFSIMMGWFRQAPGKQREMVAVINSAGSTNYADSAEGRFTISRDLAKKTVSLQMNSLKPEDTAVYYCYVDGYFGQGTQVTVSS
modifications: single biotin at the VHH C-terminal (biotinylation signal sequence)
notes: llama VHH, expressed in E. coli TG1, IMAC purified, monomeric SEC fraction; also called VHH # 23; 5-hCD22 1ug-10
With B8, in test [2], the Kd came out at 3.68 nM, the koff came out at 0.00176 s⁻¹ and the kon came out at 477000 M⁻¹ s⁻¹. Also, in test [3], the OD450 was determined as 0.332 OD450. Further, the “Non denatured CD22 OD” value in test [4] came out at 3.5 OD450.
